Measurements as given in PMC11441495 (Proceedings of the National Academy of Sciences of the …, 2024).
Values belong to the binder of their own block, whether it stands above or below them.

B1: full-length human vinculin autoinhibition-disruption mutant VK3E (natural protein, UniProt P18206-2 1-1066, looked up)
chain: MPVFHTRTIESILEPVAQQISHLVIMHEEGEVDGKAIPDLTAPVAAVQAAVSNLVRVGKETVQTTEDQILKRDMPPAFIKVENACTKLVQAAQMLQSDPYSVPARDYLIDGSRGILSGTSDLLLTFDEAEVRKIIRVCKGILEYLTVAEVVETMEDLVTYTKNLGPGMTKMAKMIDERQQELTHQEHRVMLVNSMNTVKELLPVLISAMKIFVTTKNSKNQGIEEALKNRNFTVEKMSAEINEIIRVLQLTSWDEDAWASKDTEAMKRALASIDSKLNQAKGWLRDPSASPGDAGEQAIRQILDEAGKVGELCAGKERREILGTCKMLGQMTDQVADLRARGQGSSPVAMQKAQQVSQGLDVLTAKVENAARKLEAMTNSKQSIAKKIDAAQNWLADPNGGPEGEEQIRGALAEARKIAELCDDPKERDDILRSLGEISALTSKLADLRRQGKGDSPEARALAKQVATALQNLQTKTNRAVANSRPAKAAVHLEGKIEQAQRWIDNPTVDDRGVGQAAIRGLVAEGHRLANVMMGPYRQDLLAKCDRVDQLTAQLADLAARGEGESPQARALASQLQDSLKDLKARMQEAMTQEVSDVFSDTTTPIKLLAVAATAPPDAPNREEVFDERAANFENHSGKLGATAEKAAAVGTANKSTVEGIQASVKTARELTPQVVSAARILLRNPGNQAAYEHFETMKNQWIDNVEKMTGLVDEAIDTKSLLDASEEAIKKDLDKCKVAMANIQPQMLVAGATSIARRANRILLVAKREVENSEDPKFREAVKAASDELSKTISPMVMDAKAVAGNISDPGLQKSFLDSGYRILGAVAKVREAFQPQEPDFPPPPPDLEQLRLTDELAPPKPPLPEGEVPPPRPPPPEEKDEEFPEQKAGEVINQPMMMAARQLHDEARKWSSKGNDIIAAAKRMALLMAEMSRLVRGGSGTEEALIQCAKDIAKASDEVTRLAKEVAKQCTDKRIRTNLLQVCERIPTISTQLEILSTVKATMLGRTNISDEESEQATEMLVHNAQNLMQSVKETVREAEAASIKIRTDAGFTLRWVRKTPWYQ
B2: full-length human αE-catenin (natural protein, UniProt P35221 1-906, looked up)
chain: MTAVHAGNINFKWDPKSLEIRTLAVERLLEPLVTQVTTLVNTNSKGPSNKKRGRSKKAHVLAASVEQATENFLEKGDKIAKESQFLKEELVAAVEDVRKQGDLMKAAAGEFADDPCSSVKRGNMVRAARALLSAVTRLLILADMADVYKLLVQLKVVEDGILKLRNAGNEQDLGIQYKALKPEVDKLNIMAAKRQQELKDVGHRDQMAAARGILQKNVPILYTASQACLQHPDVAAYKANRDLIYKQLQQAVTGISNAAQATASDDASQHQGGGGGELAYALNNFDKQIIVDPLSFSEERFRPSLEERLESIISGAALMADSSCTRDDRRERIVAECNAVRQALQDLLSEYMGNAGRKERSDALNSAIDKMTKKTRDLRRQLRKAVMDHVSDSFLETNVPLLVLIEAAKNGNEKEVKEYAQVFREHANKLIEVANLACSISNNEEGVKLVRMSASQLEALCPQVINAALALAAKPQSKLAQENMDLFKEQWEKQVRVLTDAVDDITSIDDFLAVSENHILEDVNKCVIALQEKDVDGLDRTAGAIRGRAARVIHVVTSEMDNYEPGVYTEKVLEATKLLSNTVMPRFTEQVEAAVEALSSDPAQPMDENEFIDASRLVYDGIRDIRKAVLMIRTPEELDDSDFETEDFDVRSRTSVQTEDDQLIAGQSARAIMAQLPQEQKAKIAEQVASFQEEKSKLDAEVSKWDDSGNDIIVLAKQMCMIMMEMTDFTRGKGPLKNTSDVISAAKKIAEAGSRMDKLGRTIADHCPDSACKQDLLAYLQRIALYCHQLNICSKVKAEVQNLGGELVVSGVDSAMSLIQAAKNLMNAVVQTVKASYVASTKYQKSQGMASLNLPAVSWKMKAPEKKPLVKREKQDETQTKIKRASQKKHVNPVQALSEFKAMDSI
B3: human β-catenin (natural protein, UniProt P35222 1-781, looked up)
chain: MATQADLMELDMAMEPDRKAAVSHWQQQSYLDSGIHSGATTTAPSLSGKGNPEEEDVDTSQVLYEWEQGFSQSFTQEQVADIDGQYAMTRAQRVRAAMFPETLDEGMQIPSTQFDAAHPTNVQRLAEPSQMLKHAVVNLINYQDDAELATRAIPELTKLLNDEDQVVVNKAAVMVHQLSKKEASRHAIMRSPQMVSAIVRTMQNTNDVETARCTAGTLHNLSHHREGLLAIFKSGGIPALVKMLGSPVDSVLFYAITTLHNLLLHQEGAKMAVRLAGGLQKMVALLNKTNVKFLAITTDCLQILAYGNQESKLIILASGGPQALVNIMRTYTYEKLLWTTSRVLKVLSVCSSNKPAIVEAGGMQALGLHLTDPSQRLVQNCLWTLRNLSDAATKQEGMEGLLGTLVQLLGSDDINVVTCAAGILSNLTCNNYKNKMMVCQVGGIEALVRTVLRAGDREDITEPAICALRHLTSRHQEAEMAQNAVRLHYGLPVVVKLLHPPSHWPLIKATVGLIRNLALCPANHAPLREQGAIPRLVQLLVRAHQDTQRRTSMGGTQQQFVEGVRMEEIVEGCTGALHILARDVHNRIVIRGLNTIPLFVQLLYSPIENIQRVAAGVLCELAQDKEAAEAIEAEGATAPLTELLHSRNEGVATYAAAVLFRMSEDKPQDYKKRLSVELTSSLFRTEPMAWNETADLGLDIGAQGEPLGYRQDDPSYRSFHSGGYGQDALGMDPMMEHEMGGHHPGADYPVDGLPDLGHAQDLMDGLPPGDSNQLAWFDTDL

How the values were obtained:
Test in all cases: reconstitution of the complex from purified proteins
[1] = molecular target: α-catenin–β-catenin–E-cadherin cytoplasmic tail complex (ABE complex) (human, UniProt P35221 1-906; P35222 1-781; P12830 731-882)
[2] = molecular target: B1
[3] = molecular target: B2
human β-catenin = molecular target: B3

Sequence of α-catenin–β-catenin–E-cadherin cytoplasmic tail complex (ABE complex) (P12830 731-882, one chain of several): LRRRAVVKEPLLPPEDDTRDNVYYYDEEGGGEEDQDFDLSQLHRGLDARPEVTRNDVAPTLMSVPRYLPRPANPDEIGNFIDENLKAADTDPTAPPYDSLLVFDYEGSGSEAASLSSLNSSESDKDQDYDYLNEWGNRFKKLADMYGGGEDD

Binder: B1
binding result [1]: binds

Binder: B2
binding result [2]: binds

Binder: B3
binding result [3]: binds

binding result (human β-catenin): binds
B4: cytoplasmic domain of human E-cadherin (EcadCT, residues 731 to 882) (domain or fragment)
chain: not shown
